Assay results reported in article PMC10227085, “OsMADS17 simultaneously increases grain number and grain weight in rice”.

Columns and labels:
MBP-OsMADS17 = MBP-OsMADS17 (Oryza sativa, UniProt Q7XUN2 1-249); assay: EMSA; cold probe competition at 20x and 200x; 20 uL with 2 uL biotin probe, 5 ug protein, 2 uL 10x binding buffer (composition not given), 1 uL 50% glycerol; 30 min at room temperature; 6% native PAGE, 0.5x TBE; details: protein: recombinant; tags: N-terminal MBP; chain copies: 2; blunt
MBP-OsMADS1 = MBP-OsMADS1 (Oryza sativa, UniProt Q10PZ9 1-257); assay: as above; details: protein: recombinant; tags: N-terminal MBP; chain copies: 2; blunt
MBP-OsMADS1, sequence (Q10PZ9 whole entry): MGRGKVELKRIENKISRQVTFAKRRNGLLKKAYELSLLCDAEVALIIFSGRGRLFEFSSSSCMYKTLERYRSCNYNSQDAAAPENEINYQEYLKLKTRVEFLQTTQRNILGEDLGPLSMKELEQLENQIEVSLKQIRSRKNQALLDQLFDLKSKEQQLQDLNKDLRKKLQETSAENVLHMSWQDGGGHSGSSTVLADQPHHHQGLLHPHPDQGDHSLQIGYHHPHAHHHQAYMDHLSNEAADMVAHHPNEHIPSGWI

MBP-OsMADS17, sequence (Q7XUN2 whole entry): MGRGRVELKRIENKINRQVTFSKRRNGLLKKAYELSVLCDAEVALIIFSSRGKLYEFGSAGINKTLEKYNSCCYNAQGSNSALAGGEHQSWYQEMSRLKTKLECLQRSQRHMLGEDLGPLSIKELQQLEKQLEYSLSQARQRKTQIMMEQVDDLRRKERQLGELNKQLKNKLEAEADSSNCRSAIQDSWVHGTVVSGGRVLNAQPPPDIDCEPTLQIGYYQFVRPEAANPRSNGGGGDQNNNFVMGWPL

B1: EMSA-probe-OsAP2-39 (dsDNA)
DNA 1: AAACCTTACCAAATTTTGGTAAAGTTGCCAAAAAAATGGCTATATTTA
DNA 2: TAAATATAGCCATTTTTTTGGCAACTTTACCAAAATTTGGTAAGGTTT
MBP-OsMADS17
  binding result: binds

B2: EMSA-probe-OsMADS17 (dsDNA)
DNA 1: TCTCTGCTCCTTTATATGGGGTTACA
DNA 2: TGTAACCCCATATAAAGGAGCAGAGA
MBP-OsMADS1
  binding result: binds
